Measurements as given in patent publication EP3145530B1.

Experiments:
[1] = target: TRAIL-R1/DR4 (human) (UniProt O00220); experiment: cell-based or functional assay
[2] = target: TRAIL-R2/DR5 (human) (UniProt O14763); experiment: cell-based or functional assay
Chain of UniProt O14763 (O14763 56-440): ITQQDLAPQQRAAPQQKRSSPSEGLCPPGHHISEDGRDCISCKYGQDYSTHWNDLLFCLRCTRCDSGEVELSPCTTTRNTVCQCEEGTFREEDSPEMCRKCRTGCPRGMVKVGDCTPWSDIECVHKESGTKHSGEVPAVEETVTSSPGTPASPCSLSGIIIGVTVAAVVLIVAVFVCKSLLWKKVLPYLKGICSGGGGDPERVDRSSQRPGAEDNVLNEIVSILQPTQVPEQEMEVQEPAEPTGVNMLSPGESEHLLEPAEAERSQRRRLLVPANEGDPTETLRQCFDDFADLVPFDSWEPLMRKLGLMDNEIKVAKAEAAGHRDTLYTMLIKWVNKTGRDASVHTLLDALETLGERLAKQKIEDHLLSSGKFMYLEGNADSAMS

Chain of UniProt O00220 (O00220 24-468): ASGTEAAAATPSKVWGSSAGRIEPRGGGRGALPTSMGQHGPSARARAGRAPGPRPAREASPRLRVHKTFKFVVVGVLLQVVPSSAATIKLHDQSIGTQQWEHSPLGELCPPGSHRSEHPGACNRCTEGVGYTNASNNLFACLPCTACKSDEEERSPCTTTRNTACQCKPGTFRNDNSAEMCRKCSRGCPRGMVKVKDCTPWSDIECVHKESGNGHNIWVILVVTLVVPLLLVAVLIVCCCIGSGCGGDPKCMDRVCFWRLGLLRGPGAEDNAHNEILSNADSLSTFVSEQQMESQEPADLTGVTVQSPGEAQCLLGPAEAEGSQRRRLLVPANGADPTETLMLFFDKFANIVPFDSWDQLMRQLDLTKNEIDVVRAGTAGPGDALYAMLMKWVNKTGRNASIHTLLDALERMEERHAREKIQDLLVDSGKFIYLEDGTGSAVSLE

TRAIL (TNF-related apoptosis-inducing ligand)
fold increase in induced cell death (MTT, 3 h) of human primary HSCs treated at day 7 versus day 1 [1]: 4.5 fold
fold increase in induced cell death (MTT, 3 h) of human primary HSCs treated at day 14 versus day 1 [1]: 7.5 fold
fold increase in induced cell death (MTT, 3 h) of human primary PSCs from day 1 to day 14 [1]: 5.5 fold
fold increase in induced cell death (MTT, 3 h) of human primary HSCs treated at day 7 versus day 1 [2]: 4.5 fold
fold increase in induced cell death (MTT, 3 h) of human primary HSCs treated at day 14 versus day 1 [2]: 7.5 fold
fold increase in induced cell death (MTT, 3 h) of human primary PSCs from day 1 to day 14 [2]: 5.5 fold
